# Experimental data reported in the RNAGym collection of RNA variant scans (doi:10.1073/pnas.2313332121).
# This sample holds only a part of the variants without activity.
# B1: TPR 5TU (parent)
# chain: GGAUCUUCUCGAUCUAACAAAAAAGACAAAUCUGCCACAAAGCUUGAGAGCAUCUUCGGAUGCAGAGGCGGCAGCCUUCGGUGGCGCGAUAGCGCCAACGUUCUCAACUAUGACACGCAAAACGCGUGCUCCGUUGAAUGGAGUUUAUCAUG
# Variants of: B1
# Assay: polymerase ribozyme fitness, log enrichment relative to wild type (log ratio); higher = more active; in vitro selection for triplet polymerase activity
# Outline: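 In triplicate, a single round of in vitro selection was run on each mutant library, PCR-built and transcribed, covering one subunit of a heterodimeric triplet polymerase ribozyme. Frozen incubation at −7 °C followed annealing with a biotinylated primer, partner subunit and triplets, and extended constructs were then gel-excised, streptavidin-captured and taken through RT-PCR. Fitness is the logarithm of genotype enrichment over wild-type enrichment, from inverse-variance-weighted replicate averages of Illumina-sequenced inputs and outputs. […] only genotypes with ≥10 input reads and ≥1 read per output were kept.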
row,Variant,polymerase ribozyme fitness (log ratio)
1,GGAUCUUCUCGAUCUAACAAAAAAGACAAAUCUGCCACAUAGCUUGAGAGCAUCUUCGGAUGCAGAGGCGGCAGCCUUCGGUGGAGCGAUAGCGCCAACGUUCUCAACUAUGACACGCAAAACGCGUGCUCCGUUGAAUGGAGUUUAUCAUG,-1.44
2,GGAUCUUCUCGAUCUAACAAAAAAGACAAAUCUGCCACAAAGCUUGAGAGCAUCUACGGAUGCAGAGGCGGCAGCCUUCGGUGGCGCGAUAGCGCCAACGAUCUCAACUAUGACACGCAAAACGCGUGCUCCGUUGAAUGGAGUUUAUCAUG,-0.244
3,GGAUCUUCUCGAUCUAACAAAAAAGACAAAUCUGCCACAAAGCUUGAGAGCAGCUUCGGAUGCAGAGGCGGGAGCCUUCGGUGGCGCGAUAGCGCCAACGUUCUCAAGUAUGACAAGCAAAACGCGUGCUCCGUUGAAUGGAGUUUAUCAUG,≤ -4.2
4,GGAUCUUCUCGAUUUAACAAAAAAGACAAAUCUGCCACAAAGCUUGAGAGCAUCUUCGAAUGCAGAGGCGGCAGCCUUCGGUGGUGCGAUAGCGCCAACGUUCUCAACUAUGACACGCAAAACGCGUGCUCCGAUGAAUGGAGUUUAUCAUG,-4.12
5,GGAUCUUCUCGAUCUAACAAAAAAGACAAAUCUGCCACAAAGCUUGAGAGCAUCUUCGGAUGCAGAGGCGGCAGCCUUCGGUGGCGCGAUAGCGCCAACGUUCUCAACUAUGACACGCAAAACGCGGGCUCCGUUGUAUGGAGUUUAUCAUG,-4.19
6,GGAUCUUGUCGAUCUAACAAAAAAGAGAAAUCUGCGACCAAGCUUGAGAGCAUCUUCGGAUGCAGAGGCGGCAGCCUUCGGUGGAGCGAUAGCGCCAACGUUCUCAACUAUGACACGCAAAACGCGUGCUCCGUUGAAUGGAGUUUAUCAUG,≤ -4.2
7,GGAUCUUCUCGAUCUAACAAAAAAGACAAAUCUGCCACAAAGCUUGAGAGCAUCUACGGAUGCAGAGGCGGCAGCCUUCGGUGGCGCGAUAGGGCCAACGUUCUCAACUAUGACACGCAAAACGCGUGCUCCGUUGAAUGGAGUUUAUCAUG,-3.55
8,GGAUGUUCUCGAUCUAACAAAAAAGACAAAUCUGCCACGAAGCUUGAGAGCAUCUUCGGAUGCAGAGGCGGCAGCCUUCGGUGGCGCAAUAGCGCCAACGUUCUCAACUAUGACACGCAAAACGCGUGCUGCGUUGAAUGGAGUUUAUCAUG,≤ -4.2
9,GGAGCUUCUCGAUCUAACCAAAAAGACAAAUCUGCAACAAAGCUUGAGAGCAUCUUCGGAUGCAGAGGCGGCAGCCUUCGGUGGCGCGAUAGCGCCAACGUUCUCAACUAUGACACGCCAAACGCGUGCUCCAUUGAAUGGAGUUUAUCAUG,≤ -4.2
10,GGAUCUUCUCGAUCUAACAAAAAAGACAAAUCUGCCACAAAGCUUGAGAGGAUUUUCGGAUGCAGAGGCGGCAGCCUUCGGUGGCGCGAUAGCGCCAGCGUUCUCAACUAUGACACGCAAAACGCGUGCUCAGUGGAAUGGAGUUUAUCAUG,≤ -4.2
11,GGAUCUUCUCGAUCUAACAAAAAAGACAAAUCUGCCACAAAGCUUGAGAGCAUCUUCGGAUGCAGAGGCGGCAGCCUUCGGUGGCGCAAUAGCGCCAACGUUCUCAACUGUGACACGCAAAUCGCGUGCUCCGUUGAAUGGAGUUUAUCAUG,-3.97
12,GGAUCUUCUCGAUCUAACAAAAAAGACAAAUCUGCCACAAAGUUUGAGAGCAUCUUCGGAUGCAGAGGCGGCAGCCUUCGGUGGAGUGAUAGCCCCAACGUUCUCAACUAUGACACGCAAAACGCGUGCUCCGUUGAAUGGAGUUUAUCAUG,≤ -4.2
13,GGAUCUUCUCGAUCUAACAAAAAAGACAAAUCUGCCACAAAGCUUGAGGGCAUCUUCGGAUGCAGAGGCGGCAGCUUUCGGUGGCGCGCUAGCGCAAACGUUCUCAACUAUGACACGCAAAACGCGUGCUCCGUUGAAUGGAGUUUAUCAUG,-2.23
14,GGAUCUUCUUGAUCUAACAAAAAAGACAAAUCUGCCACAAAGCUUGAGAGCAACUUCGGAUGCAGAGGCGGCAGCCUUCGGUGGCGCGAUAGCGCCAACGUUCUCAACUAUGACACGCAAAACGCGUGCUCCGUUGAAUGGAGUUUAUCAUG,-2.96
15,GGAUCUUCUCGAUCUAACAAAAAAGACAAAUCUGCCACAAAGCUUGAGAGUAUCUUCGGAUGCAGAGGCGGCAGCCUUCGGUGGCGAGAUAGCGCCAACGUUCUCAACUAUGACACGCAAAACGCGUGCUCCGUUGAAUGGAGUUUAUCAUG,≤ -4.2
16,GGAUCUUCUCGAUCUAACAAAAAAGACAAAUCUGCCACAAAGCUUGAGAGCAUCUUCGGAUGCAGAGGCGGCAGCCUUCGGUGGCGCGAUAGGGCCAACGUUCUCAAGUAUGACACGCAAAACGCGUGCUCCGUUGAAUGGAGUUUAUCAUG,-3.9
17,GGAUCUUCUCGAUCUAACAAAAAGGACAAAUCUGCCACAAAGCUUGAGAGCAUUUUCGGAUGCAGAGGCGGCAGCCUUCGGUGGCGCGAUAGCGUCCACGUUCUCAACUAUGACACGCUAAACGUGUGCUCCGUUGAAUGGAGUUUAUCAUG,≤ -4.2
18,GGAUCUUCUCGAUCUAACAAAAAAGACAAAUCUGCCACAAAGCUUGAGAGCAUCUUCGGAUGCAGAGGCGGCAACCUUCGGUGGCGCGCUAGCGCCAACGUUCUCAACUAUGACACGCAAAACGCGUGCUCCGUUGAAUGGAGUUUAUCAUG,≤ -4.2
19,GGAUCUUCUCGAUCUAACAAAAAAGACAAAUCUGCCACAAAGCUUGAGAGUAUCUUCGGAUGCAGAGGCGGCAGCCUUCGGUGGCGCGAUAGAGCCAACGUUCUCAACUAUGACACGCAAAACGCGUGCUCCGUUGAAUGGAGUUUAUCAUG,-2.34
